# Laboratory results taken from US20050196797.
# Legend:
# [1] = tested on: protein having a molecular weight of 70 kDa (p70)
# [2] = tested on: SMGBP1 (SMG Binding Protein 1)
# Chain of SMGBP1 (SMG Binding Protein 1) (chain, as listed by the source): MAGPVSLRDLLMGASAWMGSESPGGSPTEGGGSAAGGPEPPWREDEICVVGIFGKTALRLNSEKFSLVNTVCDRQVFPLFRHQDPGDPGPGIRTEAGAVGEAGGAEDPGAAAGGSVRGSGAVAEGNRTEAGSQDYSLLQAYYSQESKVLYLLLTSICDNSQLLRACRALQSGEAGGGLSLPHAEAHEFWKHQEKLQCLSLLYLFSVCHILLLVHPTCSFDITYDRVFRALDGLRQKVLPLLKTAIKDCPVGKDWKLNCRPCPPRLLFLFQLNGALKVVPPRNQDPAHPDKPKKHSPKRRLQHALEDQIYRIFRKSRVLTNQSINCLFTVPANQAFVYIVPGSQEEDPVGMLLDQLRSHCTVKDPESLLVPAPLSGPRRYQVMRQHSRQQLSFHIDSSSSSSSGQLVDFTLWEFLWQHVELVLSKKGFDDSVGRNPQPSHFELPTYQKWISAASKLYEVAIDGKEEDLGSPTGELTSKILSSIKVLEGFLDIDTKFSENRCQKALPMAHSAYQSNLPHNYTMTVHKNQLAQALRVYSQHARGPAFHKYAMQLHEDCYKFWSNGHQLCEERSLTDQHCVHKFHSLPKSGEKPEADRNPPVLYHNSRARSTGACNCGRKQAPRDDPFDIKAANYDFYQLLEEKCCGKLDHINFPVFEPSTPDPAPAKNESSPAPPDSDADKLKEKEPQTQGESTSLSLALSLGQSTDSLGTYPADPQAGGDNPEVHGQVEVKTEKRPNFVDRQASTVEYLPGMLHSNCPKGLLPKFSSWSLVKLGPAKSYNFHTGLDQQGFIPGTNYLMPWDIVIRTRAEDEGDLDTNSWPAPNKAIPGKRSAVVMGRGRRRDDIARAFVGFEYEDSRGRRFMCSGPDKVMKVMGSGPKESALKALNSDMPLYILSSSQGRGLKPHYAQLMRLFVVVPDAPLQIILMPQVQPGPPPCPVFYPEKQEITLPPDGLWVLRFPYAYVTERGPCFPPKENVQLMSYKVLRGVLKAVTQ
substance,measurement,setting,value
human SMG-1 (hSMG-1),phosphorylation in the hSMG-1 immunoprecipitate (32P autoradiography),[1],"a protein having a molecular weight of 130 kDa (p130) and a protein having a molecular weight of 70 kDa (p70), were detected as phosphorylated proteins. The patterns of phosphorylation thereof accorded exactly with those of autophosphorylation of hSMG-1."
same,phosphorylation in the hSMG-1 immunoprecipitate (32P autoradiography),[2],"a protein having a molecular weight of 130 kDa (p130) and a protein having a molecular weight of 70 kDa (p70), were detected as phosphorylated proteins. The patterns of phosphorylation thereof accorded exactly with those of autophosphorylation of hSMG-1."
